From article PMC10477112, “APP-BACE1 Interaction and Intracellular Localization Regulate Aβ Production in iPSC-Derived Cortical Neurons” (Cellular and Molecular Neurobiology, 2023)

Biological target: T1, APP-derived C-terminal fragment (APP-CTF) (human (endogenous in iPSC-derived NPCs …, UniProt P05067 672-770))
T1 construct: also called C-terminal APP; C-termAPP; source: endogenous, human iPSC-derived NPCs and cortical neurons, fixed cells
Test: proximity ligation; DuoLink PLA on fixed (4% PFA), permeabilised human iPSC-derived NPCs (day 45) and neurons (day 75); primary antibodies against APP (N-terminal or C-terminal), BACE1 and PSEN1; proximity of maximum 40 nm; PLA dot area divided by nuclear area
Conditions: partners not purified

fold PLA colocalization against flAPP/BACE1 in NPCs (calculated): ≥ 6.7 times
B1: BACE1 (beta-secretase) (enzyme, UniProt P56817 46-501, looked up)
chain: ETDEEPEEPGRRGSFVEMVDNLRGKSGQGYYVEMTVGSPPQTLNILVDTGSSNFAVGAAPHPFLHRYYQRQLSSTYRDLRKGVYVPYTQGKWEGELGTDLVSIPHGPNVTVRANIAAITESDKFFINGSNWEGILGLAYAEIARPDDSLEPFFDSLVKQTHVPNLFSLQLCGAGFPLNQSEVLASVGGSMIIGGIDHSLYTGSLWYTPIRREWYYEVIIVRVEINGQDLKMDCKEYNYDKSIVDSGTTNLRLPKKVFEAAVKSIKAASSTEKFPDGFWLGEQLVCWQAGTTPWNIFPVISLYLMGEVTNQSFRITILPQQYLRPVEDVATSQDDCYKFAISQSSTGTVMGAVIMEGFYVVFDRARKRIGFAVSACHVHDEFRTAAVEGPFVTLDMEDCGYNIPQTDESTLMTIAYVMAAICALFMLPLCLMVCQWRCLRCLRQQHDDFADDISLLK
notes: BACE1, human, endogenous; also called β-secretase; source: endogenous, human iPSC-derived NPCs and cortical neurons, fixed cells; endogenous, SH-SY5Y cells, fixed
